For assay [1], the target named is ephrin-B2 (Homo sapiens) (UniProt P52799). As to conditions: cited from earlier work.
Assay [2] addresses ephrin-B2-Fc (extracellular region of murine ephrin-B2, Fc fusion) (murine) (UniProt P52800). Kind of assay: BLI; BLItz instrument; Protein-A biosensor loaded with 50 ug/ml purified Fc-tagged ephrin-B2, washed with HBS; EphB6-ECD at 100 nM and 1 uM, association and dissociation 3 min each; apparent Kd. In general terms: Biolayer interferometry detects binding as a change in optical thickness at a sensor tip.

For assay [3] the target is unchanged. Description: SEC; Superdex 200 FPLC of the EphB6-ECD/ephrin-B2 complex, micromolar concentration range. (In general: In gel filtration, larger molecules generally elute earlier.)

Sequence of UniProt P52799 (P52799 28-229): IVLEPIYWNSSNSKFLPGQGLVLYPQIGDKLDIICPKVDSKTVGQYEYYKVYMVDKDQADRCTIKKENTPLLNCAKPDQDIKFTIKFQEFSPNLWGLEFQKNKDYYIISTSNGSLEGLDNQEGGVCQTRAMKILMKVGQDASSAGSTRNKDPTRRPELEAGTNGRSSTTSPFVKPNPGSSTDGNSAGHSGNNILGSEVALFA

For the substance EphB2 (from UniProt P29323), the Kd in assay [1] is 8.6 nM.
As a reminder, the stoichiometry N is the number of molecules, sites or subunits per partner or assembly. For “EphB6 receptor ectodomain (EphB6-ECD) (from UniProt O15197 32-594) (domain or fragment)”, the Kd in assay [2] was determined as 88.5 nM. Further, in assay [3], the stoichiometry N turned out to be 1.

The values are drawn from paper PMC7997048.
